Assay results reported in patent US20060035230A1 (BOYCE THOMPSON INSTITUTE FOR PLANT RESEARCH, published 2006).

Biological target: T1, PtiDC1Δ70 (AvrPtoB lacking the first 70 amino acids) (Pseudomonas syringae pv. tomato DC3000, UniProt Q8RSY1 71-553)
T1 construct: also called AvrPtoB prey PtiDC1Δ70; avrPtoB (PtiDC1Δ70)
T1 sequence: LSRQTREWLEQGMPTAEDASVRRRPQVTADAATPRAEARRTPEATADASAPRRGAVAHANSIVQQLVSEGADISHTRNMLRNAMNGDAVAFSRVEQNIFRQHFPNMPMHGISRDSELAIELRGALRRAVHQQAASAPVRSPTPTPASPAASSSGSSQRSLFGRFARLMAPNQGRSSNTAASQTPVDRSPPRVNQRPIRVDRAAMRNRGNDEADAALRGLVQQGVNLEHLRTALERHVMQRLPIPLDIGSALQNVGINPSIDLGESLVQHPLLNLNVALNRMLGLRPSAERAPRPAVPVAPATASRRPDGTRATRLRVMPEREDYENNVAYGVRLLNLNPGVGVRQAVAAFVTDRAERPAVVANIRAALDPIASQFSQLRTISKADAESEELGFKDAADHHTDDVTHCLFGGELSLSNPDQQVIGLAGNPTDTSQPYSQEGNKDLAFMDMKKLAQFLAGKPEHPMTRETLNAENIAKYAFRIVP
Test: LexA yeast two-hybrid, AvrPtoB prey PtiDC1Δ70 against kinase bait

B1: Pti1 kinase (enzyme)
chain: MSCFSCCDDDDMHRATDNGPFMAHNSAGNNGGQRATESAQRETQTVNIQPIAVPSIAVDELKDITDNFGSKALIGEGSYGRVYHGVLKSGRAAAIKKLDSSKQPDREFLAQVSMVSRLKDENVVELLGYCVDGGFRVLAYEYAPNGSLHDILHGRKGVKGAQPGPVLSWAQRVKIAVGAAKGLEYLHEKAQPHIIHRDIKSSNILLFDDDVAKIADFDLSNQAPDMAARLHSTRVLGTFGYHAPEYAMTGQLSSKSDVYSFGVVLLELLTGRKPVDHTLPRGQQSLVTWATPRLSEDKVKQCVDARLNTDYPPKAIAKMAAVAALCVQYEADFRPNMSIVVKALQPLLPRPVPS
notes: Bait fusion in pEG202
  binding result: no binding
